This is an account of results in paper PMC8977021, “bZIP transcription factors PcYap1 and PcRsmA link oxidative stress response to secondary metabolism and development in Penicillium chrysogenum”.

Data set [1] deals with T1, PcAtf21 del319-319 (Penicillium chrysogenum Wis54-1255 (P. rubens Wis54-1255)) (UniProt B6HLX5).
T1 sequence: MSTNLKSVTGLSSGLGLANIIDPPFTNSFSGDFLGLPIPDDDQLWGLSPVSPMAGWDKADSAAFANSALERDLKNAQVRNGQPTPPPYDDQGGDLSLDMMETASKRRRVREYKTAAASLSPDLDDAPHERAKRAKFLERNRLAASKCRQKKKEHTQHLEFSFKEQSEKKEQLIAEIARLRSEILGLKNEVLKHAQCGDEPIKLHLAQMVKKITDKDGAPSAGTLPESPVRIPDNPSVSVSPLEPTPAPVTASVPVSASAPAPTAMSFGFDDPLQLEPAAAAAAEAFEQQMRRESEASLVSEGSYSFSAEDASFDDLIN
Description: EMSA. The settings on record: LightShift binding buffer 1X, about 10% glycerol, 5 mM MgCl2, 20 fmol biotin probe, 10 ug protein, 20 uL, room temperature 20 min; 5% native PAGE in 0.5X TBE …. On the technique in general: In EMSA bound probe runs differently from free probe, usually more slowly.

Another data set has as its target T2, PcAtf21 (Penicillium chrysogenum Wis54-1255 (P. …, UniProt B6HLX5 1-318, del319-319)).
T2 sequence: T1 sequence
Description: EMSA; LightShift binding buffer 1X, about 10% glycerol, 5 mM MgCl2, 20 fmol biotin probe, 10 ug protein, 20 uL, room temperature 20 min; 5% native PAGE in 0.5X TBE; pH and salt not given. The settings on record: protein: recombinant; tags: C-terminal c-myc-6xHis; chain copies: 2; label: 3' biotin; blunt.

Take “AACATCGCCGTCGTTGAGTGCACGTTGCCTACTCTCTCGTGGCTTGGCTGGGCCCACGAGCCCGATTGACTCGACGGTGTTACTTGGGTATCTATGGCCCCGTTTTCTGGCACGGTAATGATAAGTACTTACTAGTCTTCGAGCGGGGGAGTGTTGCTCTGCCCGAGCATCAACGATTGGCCTGA (double strand) [probe 4]”: in data set [1], the binding entry was “no binding”.
On the same count and under the same terms, as for “TGTTTATGCTGAGACAACCTGGAGACATTATACGCTTGCAGCCCAGATGCTTACTGGATGGGGCCGCTGGAGCCAGTGTAAAATTAGTAACCGTATCTCGAAGTCGGAGGGTCTTTGGTGGTCTGAGATTTCAGTCGGTCCGCACCGTGGCATTTGCAGACGGTGCGATCAGGCCAATCGTTGATGCTCGG (double strand) [probe 5]”, the entry is “no binding”.

B1: NorR4 (dsDNA)
DNA 1: TTTCAACATTTCTTGAGTACTTTTCTAAGCCGTGACATAATGAACGGATCA
DNA 2: TGATCCGTTCATTATGTCACGGCTTAGAAAAGTACTCAAGAAATGTTGAAA
On to B1, for which, in the data set with PcAtf21, the binding result is on record as “binds”.

B2: penDE-CRE123 (dsDNA)
DNA 1: AGGTCCTGCATTAGCGTACGCCCCAGGTTTAGATCAAAGTTACGTAATTTATATGTA
DNA 2: TACATATAAATTACGTAACTTTGATCTAAACCTGGGGCGTACGCTAATGCAGGACCT
Take B2: the binding result with PcAtf21 is “no binding”.
